Reference: publication PMC9482650, “Quantitative fragmentomics allow affinity mapping of interactomes” (Nature Communications, 2022)

Experiments:
Assay in all cases: holdup assay
Set-up in all cases: key: below the threshold = too weak to quantify, mostly under pKd 3.1 to 4
[1] = target: T1, APBA1_1, Q02410
T1 sequence (Q02410 651-752, limits assumed, looked up): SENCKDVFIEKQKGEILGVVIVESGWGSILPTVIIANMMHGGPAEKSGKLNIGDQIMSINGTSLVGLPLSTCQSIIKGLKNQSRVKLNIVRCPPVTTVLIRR

[2] = target: T2, ARHGAP21, Q5T5U3
T2 sequence (Q5T5U3 45-169, limits assumed, looked up): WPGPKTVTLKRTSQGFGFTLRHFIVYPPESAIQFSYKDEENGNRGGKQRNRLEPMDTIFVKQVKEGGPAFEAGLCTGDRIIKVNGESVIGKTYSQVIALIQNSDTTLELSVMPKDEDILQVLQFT

[3] = target: ARHGEF12, Q9NZN5-2
Sequence of ARHGEF12, Q9NZN5-2 (Q9NZN5 other isoform, or with tags, fused parts or gaps): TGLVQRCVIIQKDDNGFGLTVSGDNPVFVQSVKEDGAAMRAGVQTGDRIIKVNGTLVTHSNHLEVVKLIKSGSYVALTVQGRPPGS

[4] = target: T3, DFNB31_1, Q9P202
T3 sequence (Q9P202 135-233, limits assumed, looked up): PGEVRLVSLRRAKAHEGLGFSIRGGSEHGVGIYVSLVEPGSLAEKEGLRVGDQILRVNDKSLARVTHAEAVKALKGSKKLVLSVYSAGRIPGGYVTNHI

[5] = target: DLG1_1, Q12959
[6] = target: T4, DLG3_1, Q92796
T4 sequence (Q92796 125-227, limits assumed, looked up): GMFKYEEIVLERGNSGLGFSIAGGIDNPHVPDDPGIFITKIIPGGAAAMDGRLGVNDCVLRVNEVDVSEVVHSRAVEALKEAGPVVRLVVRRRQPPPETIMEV

[7] = target: T5, DLG3_3, Q92796
T5 sequence (Q92796 374-475, limits assumed, looked up): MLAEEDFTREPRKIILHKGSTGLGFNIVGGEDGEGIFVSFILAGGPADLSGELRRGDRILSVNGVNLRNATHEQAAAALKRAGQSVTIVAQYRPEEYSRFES

[8] = target: GORASP1, Q9BQQ3
Sequence of GORASP1, Q9BQQ3 (Q9BQQ3 1-208): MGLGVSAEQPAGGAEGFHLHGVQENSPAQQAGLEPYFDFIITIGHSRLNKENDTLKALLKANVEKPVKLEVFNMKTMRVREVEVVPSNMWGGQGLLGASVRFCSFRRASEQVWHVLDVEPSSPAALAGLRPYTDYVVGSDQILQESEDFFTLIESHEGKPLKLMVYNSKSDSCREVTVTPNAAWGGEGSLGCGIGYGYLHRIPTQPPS

[9] = target: GORASP2, Q9H8Y8
[10] = target: T6, HTRA3, P83110
T6 sequence (P83110 354-453, limits assumed, looked up): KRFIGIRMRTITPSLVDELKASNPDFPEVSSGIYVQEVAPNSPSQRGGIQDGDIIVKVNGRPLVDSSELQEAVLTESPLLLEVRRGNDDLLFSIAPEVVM

[11] = target: T7, HTRA4, P83105
T7 sequence (P83105 378-476, limits assumed, looked up): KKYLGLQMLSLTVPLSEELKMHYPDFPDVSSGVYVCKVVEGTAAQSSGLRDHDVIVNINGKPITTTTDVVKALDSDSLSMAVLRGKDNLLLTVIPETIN

[12] = target: LIMK2, P53671
Sequence of LIMK2, P53671 (P53671 143-248): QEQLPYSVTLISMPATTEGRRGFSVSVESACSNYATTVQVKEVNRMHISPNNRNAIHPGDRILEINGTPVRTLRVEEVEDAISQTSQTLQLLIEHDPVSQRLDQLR

[13] = target: LNX1_1, Q8TBB1
Sequence of LNX1_1, Q8TBB1 (Q8TBB1 261-371): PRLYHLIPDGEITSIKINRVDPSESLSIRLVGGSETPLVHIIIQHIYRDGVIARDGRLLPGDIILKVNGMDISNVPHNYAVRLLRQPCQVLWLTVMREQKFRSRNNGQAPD

[14] = target: LNX1_3, Q8TBB1
Sequence of LNX1_3, Q8TBB1 (Q8TBB1 500-596): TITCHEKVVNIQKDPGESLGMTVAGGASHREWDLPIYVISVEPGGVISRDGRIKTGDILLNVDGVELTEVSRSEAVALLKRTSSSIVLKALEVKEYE

[15] = target: MAGI1_1, Q96QZ7
Sequence of MAGI1_1, Q96QZ7 (Q96QZ7 1-106): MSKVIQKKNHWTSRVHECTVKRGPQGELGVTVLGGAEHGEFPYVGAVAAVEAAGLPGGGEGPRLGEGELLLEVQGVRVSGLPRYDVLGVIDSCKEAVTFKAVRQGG

[16] = target: MAGI2_6, Q86UL8
Sequence of MAGI2_6, Q86UL8 (Q86UL8 1141-1229): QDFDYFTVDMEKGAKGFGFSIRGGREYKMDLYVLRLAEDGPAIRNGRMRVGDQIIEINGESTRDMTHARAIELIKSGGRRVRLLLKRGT

[17] = target: T8, MPDZ_5, O75970
T8 sequence (O75970 695-796, limits assumed, looked up): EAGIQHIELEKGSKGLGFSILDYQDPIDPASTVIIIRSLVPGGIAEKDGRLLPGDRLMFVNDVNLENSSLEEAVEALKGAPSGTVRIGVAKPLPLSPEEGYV

[18] = target: T9, MPP6, Q9NZW5
T9 sequence (Q9NZW5 125-219, limits assumed, looked up): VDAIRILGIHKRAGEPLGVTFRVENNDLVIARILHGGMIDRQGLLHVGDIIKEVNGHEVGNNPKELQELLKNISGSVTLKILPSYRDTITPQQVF

[19] = target: T10, NHERF3_3, Q5T2W1
T10 sequence (Q5T2W1 238-333, limits assumed, looked up): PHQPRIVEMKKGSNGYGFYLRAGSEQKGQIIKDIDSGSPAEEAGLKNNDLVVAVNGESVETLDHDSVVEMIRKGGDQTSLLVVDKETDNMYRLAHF

[20] = target: T11, PCLO, Q9Y6V0
T11 sequence (Q9Y6V0 4491-4600, limits assumed, looked up): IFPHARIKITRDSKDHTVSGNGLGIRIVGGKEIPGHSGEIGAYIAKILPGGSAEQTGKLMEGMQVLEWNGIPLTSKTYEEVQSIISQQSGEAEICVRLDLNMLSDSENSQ

[21] = target: PDZRN4_1, Q6ZMN7
Sequence of PDZRN4_1, Q6ZMN7 (Q6ZMN7 213-318): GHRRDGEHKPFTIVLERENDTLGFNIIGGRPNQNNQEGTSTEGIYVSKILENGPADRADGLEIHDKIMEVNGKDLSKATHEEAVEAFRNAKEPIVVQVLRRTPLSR

[22] = target: PTPN3, P26045
Sequence of PTPN3, P26045 (P26045 505-587): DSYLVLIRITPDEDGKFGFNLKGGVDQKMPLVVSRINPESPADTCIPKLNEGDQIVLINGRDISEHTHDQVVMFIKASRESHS

[23] = target: T12, RHPN1, Q8TCX5
T12 sequence (Q8TCX5 508-602, limits assumed, looked up): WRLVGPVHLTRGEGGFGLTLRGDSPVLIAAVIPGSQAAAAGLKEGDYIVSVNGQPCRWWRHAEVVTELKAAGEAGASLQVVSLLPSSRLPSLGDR

[24] = target: T13, TJP3_3, O95049
T13 sequence (O95049 375-456, limits assumed, looked up): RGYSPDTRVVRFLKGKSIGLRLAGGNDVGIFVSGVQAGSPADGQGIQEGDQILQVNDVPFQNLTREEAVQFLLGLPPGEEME

[25] = plain residues with an end cap or a label only (N-terminal biotin on a linker: ado-ado)
[26] = plain residues with an end cap or a label only (N-terminal biotin on a linker: (peg)3)

Measured: pKd

DRIQSCLSDA [SBF1, O95248]
3.57: [10]; [25]
4.23: [22]; [25]
3.62: [13]; [25]
below the threshold: [1]; [25] | [2]; [25] | [3]; [25] | [4]; [25] | [5]; [25] | [6]; [25] | [7]; [25] | [8]; [25] | [9]; [25] | [11]; [25] | [12]; [25] | [14]; [25] | [15]; [25] | [16]; [25] | [17]; [25] | [18]; [25] | [19]; [25] | [20]; [25] | [21]; [25] | [23]; [25] | [24]; [25]

AEASVACSLC [PTGIR, P43119]
below the threshold: [1]; [25] | [2]; [25] | [4]; [25] | [5]; [25] | [6]; [25] | [7]; [25] | [8]; [25] | [9]; [25] | [11]; [25] | [12]; [25] | [13]; [25] | [14]; [25] | [15]; [25] | [16]; [25] | [17]; [25] | [18]; [25] | [19]; [25] | [20]; [25] | [21]; [25] | [23]; [25] | [24]; [25]
4.15: [10]; [25]
3.54: [22]; [25]
3.53: [3]; [25]

RRRRSQSRESQC [HBV-HBc, P03193]
3.59: [6]; [26]
3.69: [7]; [26]
3.58: [10]; [26]
4.23: [5]; [26]
below the threshold: [1]; [26] | [2]; [26] | [3]; [26] | [8]; [26] | [9]; [26] | [11]; [26] | [12]; [26] | [13]; [26] | [14]; [26] | [15]; [26] | [16]; [26] | [17]; [26] | [18]; [26] | [19]; [26] | [20]; [26] | [21]; [26] | [23]; [26] | [24]; [26]
3.92: [4]; [26]
4.7: [22]; [26]

SFISKKEWYV [NECTIN1, Q15223]
3.96: [22]; [25]
4.49: [14]; [25]
3.6: [5]; [25]
3.56: [16]; [25]
below the threshold: [1]; [25] | [3]; [25] | [4]; [25] | [6]; [25] | [7]; [25] | [11]; [25] | [12]; [25] | [13]; [25] | [15]; [25] | [19]; [25] | [20]; [25] | [21]; [25] | [23]; [25]
4.1: [24]; [25]
4.42: [18]; [25]
4.61: [17]; [25]
4.44: [8]; [25]
4.67: [9]; [25]
4.04: [2]; [25]
4.83: [10]; [25]

NTANRRTTPV [CACNG2, Q9Y698]
3.53: [16]; [25]
3.93: [3]; [25]
4.34: [5]; [25]
4.52: [22]; [25]
3.76: [4]; [25]
3.61: [6]; [25]
below the threshold: [1]; [25] | [8]; [25] | [9]; [25] | [10]; [25] | [11]; [25] | [12]; [25] | [13]; [25] | [14]; [25] | [15]; [25] | [17]; [25] | [18]; [25] | [19]; [25] | [20]; [25] | [21]; [25] | [23]; [25] | [24]; [25]
3.86: [2]; [25]
4.69: [7]; [25]

LKDDELKTKL [SLCO1A2, P46721]
3.91: [2]; [25]
below the threshold: [1]; [25] | [4]; [25] | [5]; [25] | [6]; [25] | [7]; [25] | [8]; [25] | [9]; [25] | [10]; [25] | [11]; [25] | [12]; [25] | [14]; [25] | [15]; [25] | [16]; [25] | [17]; [25] | [18]; [25] | [20]; [25] | [21]; [25] | [22]; [25] | [24]; [25]
3.82: [23]; [25]
4.62: [3]; [25]
4.17: [19]; [25]
3.72: [13]; [25]
